Experimental data as given in article PMC5582858, “The yeast kinesin-5 Cin8 interacts with the microtubule in a noncanonical manner” (The Journal of Biological Chemistry, 2017).

Assays:
[1] = biological target: T1, Subtilisin-treated microtubules (lacking the C-terminal tails of α- and β-tubulin) (bovine, UniProt Q6B856 1-445, Purified bovine brain tubulin is an isotype mixture; the representative isotypes alpha-1B and beta-2B are assumed, as the paper states none. Cleavage limits are not given; the conventional major sub); experiment: co-sedimentation; 2 μM kinesin, 0–4 μM paclitaxel-stabilised microtubules, no added nucleotide, high ionic strength (88 mM; ATPase buffer with 75 mM KCl), 298 K, 100,000 × g 30 min; supernatant and pellet by SDS-PAGE; apparent constants, fit to Equation 3; conditions: both partners purified
[2] = biological target: T1, Subtilisin-treated microtubules …; experiment: co-sedimentation; 2 μM kinesin, 0–4 μM paclitaxel-stabilised microtubules, no added nucleotide, low ionic strength (21 mM; ATPase buffer with 7.5 mM KCl), 298 K, 100,000 × g 30 min; supernatant and pellet by SDS-PAGE; apparent constants, fit to Equation 3; conditions: both partners purified

T1 sequence (chain, as listed by the source, chain 1 of 2): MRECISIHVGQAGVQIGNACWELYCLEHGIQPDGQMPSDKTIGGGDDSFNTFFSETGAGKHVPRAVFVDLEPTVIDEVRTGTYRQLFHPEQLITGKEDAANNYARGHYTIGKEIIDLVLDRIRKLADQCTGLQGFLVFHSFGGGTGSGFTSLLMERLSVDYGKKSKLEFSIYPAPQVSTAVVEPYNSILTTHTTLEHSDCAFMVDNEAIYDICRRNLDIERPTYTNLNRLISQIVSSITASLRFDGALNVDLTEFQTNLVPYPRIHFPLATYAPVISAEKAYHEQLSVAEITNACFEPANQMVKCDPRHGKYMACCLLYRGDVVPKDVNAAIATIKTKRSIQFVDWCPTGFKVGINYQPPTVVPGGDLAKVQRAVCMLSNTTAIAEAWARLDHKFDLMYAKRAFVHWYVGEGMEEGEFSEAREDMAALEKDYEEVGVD
T1 sequence (Q6B856 1-433, chain 2 of 2): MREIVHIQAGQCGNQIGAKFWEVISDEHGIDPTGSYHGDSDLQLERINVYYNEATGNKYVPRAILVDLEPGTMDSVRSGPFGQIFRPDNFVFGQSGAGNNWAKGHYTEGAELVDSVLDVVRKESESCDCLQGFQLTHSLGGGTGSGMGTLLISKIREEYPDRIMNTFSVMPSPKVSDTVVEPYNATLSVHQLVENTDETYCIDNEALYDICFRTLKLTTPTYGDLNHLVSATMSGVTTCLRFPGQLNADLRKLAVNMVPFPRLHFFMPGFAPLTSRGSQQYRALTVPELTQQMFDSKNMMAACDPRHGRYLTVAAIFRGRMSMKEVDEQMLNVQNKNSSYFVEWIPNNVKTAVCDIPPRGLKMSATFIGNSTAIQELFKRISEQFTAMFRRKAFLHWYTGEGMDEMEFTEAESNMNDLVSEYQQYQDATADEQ

B1: Cin8-trx (Cin8 motor domain, residues 70–535, fused to N-terminal thioredoxin (TrxA), His6, TEV cleavage and Arg9 tags) (domain or fragment, S. cerevisiae, UniProt P27895 70-535, looked up)
chain: ISINTTGDTGITAQMNAKRYTVDKVFGPGASQDLIFDEVAGPLFQDFIKGYNCTVLVYGMTSTGKTYTMTGDEKLYNGELSDAAGIIPRVLLKLFDTLELQQNDYVVKCSFIELYNEELKDLLDSNSNGSSNTGFDGQFMKKLRIFDSSTANNTTSNSASSSRSNSRNSSPRSLNDLTPKAALLRKRLRTKSLPNTIKQQYQQQQAVNSRNNSSSNSGSTTNNASSNTNTNNGQRSSMAPNDQTNGIYIQNLQEFHITNAMEGLNLLQKGLKHRQVASTKMNDFSSRSHTIFTITLYKKHQDELFRISKMNLVDLAGSENINRSGALNQRAKEAGSINQSLLTLGRVINALVDKSGHIPFRESKLTRLLQDSLGGNTKTALIATISPAKVTSEETCSTLEYASKAKNIKNKPQLGSFIMKDILVKNITMELAKIKSDLLSTKSKEGIYMSQDHYKNLNSDLESYKN
notes: Kinesin-5 Cin8, S. cerevisiae, motor domain, residues 70–535; Expected mass 67.3 kDa; source: E. coli B834(DE3) with pRILP, purified (SP-Sepharose, nickel-nitrilotriacetic acid, Sephadex G-25); not shown: thioredoxin (TrxA), N-terminal, kept; His6, N-terminal, kept; TEV cleavage tag, N-terminal, kept; Arg9, N-terminal, kept
Q: For B1, which “stoichiometry N” value [1] is on record?
A: Its value is 2.2 ± 0.2.

Q: And the “stoichiometry N” value [2]?
A: The value was 5.4 ± 0.4.
